The results in this text go back to patent publication US20220119534A1 (DRAGONFLY THERAPEUTICS, published 2022).

Where a chain is given by its changes, count along the chain named. In names and notes the source's numbering stands. Several values for one entry are separate records, joined by “and”; a condition that tells them apart may be missing. Equal values may be shown once.

In test [1] the target is T1, Human CD32a H131 (FcγRIIa H131) (human, UniProt P12318 36-218, limits assumed, biotinylated).
T1 construct: Bought recombinant receptor; also called hFcγRIIa H131; FcgRIIa H131
T1 sequence (looked up): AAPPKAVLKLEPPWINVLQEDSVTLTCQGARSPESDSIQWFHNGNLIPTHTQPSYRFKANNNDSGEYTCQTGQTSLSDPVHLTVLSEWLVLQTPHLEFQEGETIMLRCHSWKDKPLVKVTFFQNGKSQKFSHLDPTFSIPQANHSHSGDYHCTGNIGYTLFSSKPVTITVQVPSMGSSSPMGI
As to the kind of experiment: SPR 25C, average.
Procedure: (§1) Human and cynomolgus CD64, high and low affinity alleles of CD16a (V158 and F158, respectively), two alleles of CD32a (H131 and R131), CD16b, CD32b and cynomolgus CD16 were captured via biotin on a primed (according to the manufacturers instruction) Biacore chip. […] Due to irreversibility of streptavidin-biotin interaction, the capture step for all receptors except FcγRI (CD64) was performed just once prior to the start of the binding experiment. hCD64 and cyno CD64 capture on the CAP chip surface was performed during each cycle in accordance with the manufacturer's instructions for the Biotin CAPture kit.

Test [2] has as its target T2, Human CD32a R131 (FcγRIIa R131) (human, UniProt P12318 36-218, limits assumed, biotinylated).
T2 construct: Bought recombinant receptor; also called hFcγRIIa R131; FcgRIIa R131
T2 sequence (looked up): T1 sequence (looked up) with H132R
As to the kind of experiment: SPR 25C, average.
Procedure: as §1

The target of test [3] is T3, Cynomolgus CD16 (FcγRIII) (cynomolgus monkey, UniProt Q8SPW2 17-208, biotinylated).
T3 construct: Bought recombinant receptor; also called cFcγRIII; Cyno FcγRIII
In words: SPR 25C, average.

Test [4] addresses T4, Human CD16a V158 (FcγRIIIa V158) (human, UniProt P08637 17-208, biotinylated).
T4 construct: Bought recombinant receptor; also called hCD16aV; hFcγRIIIa V158
In words: SPR; after forced oxidation.

Test [5] concerns the target T5, Human CLEC12A-His (recombinant, K244 WT) (human, UniProt Q5QGZ9 65-265).
T5 construct: Made in house (Dragonfly Tx); also called hCLEC12A; hCLEC12A-His; not shown: His tag
T5 sequence: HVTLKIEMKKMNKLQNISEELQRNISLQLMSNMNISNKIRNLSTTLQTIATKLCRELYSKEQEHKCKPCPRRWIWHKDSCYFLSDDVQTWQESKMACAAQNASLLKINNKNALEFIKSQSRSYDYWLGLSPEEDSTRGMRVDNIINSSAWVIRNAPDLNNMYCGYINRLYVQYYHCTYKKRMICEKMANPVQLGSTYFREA
In words: SPR 37C, two-state fit (kd1), average.

Test [6] concerns the target T5, Human CLEC12A-His (recombinant, K244 WT). As to the kind of experiment: SPR, two-state fit (kd1); control sample. Background: Surface plasmon resonance follows binding to a sensor surface in real time, without labels.
Procedure: (§2) Briefly, human Fc specific antibodies were covalently immobilized at a density ˜8000-10000 resonance units (RU) on carboxy methyl dextran matrix of a CM5 biosensor chip via amine-coupling chemistry to create an anti-hFc IgG chip. […] Association was monitored for 300 seconds and dissociation was monitored for 600 seconds. Surfaces were regenerated between cycles with three pulses of 10 mM glycine-HCl, pH 1.7 injected for 20 seconds at 100 μl/min. HBS-EP+ (1×) with 0.1 mg/ml BSA was used as running buffer throughout the experiment. Experiments were performed at physiological temperature of 37° C. To obtain kinetic rate constants and overall binding affinity, double-referenced data were fit to a two-state kinetic model using Biacore 8K Insight Evaluation software (Cytiva).
The target in test [7] is T6, Human CD16a F158 (FcγRIIIa F158) (human, UniProt P08637 17-208, biotinylated).
T6 construct: Bought recombinant receptor; also called hFcγRIIIa F158
As to the kind of experiment: SPR 25C, receptor captured, steady-state fit.

For test [8], the target named is T5, Human CLEC12A-His (recombinant, K244 WT). As to the kind of experiment: SPR, two-state fit (ka1); after pH 5.0, 40C, 2 wks.
Procedure: as §2
Test [9] has the same target. As to the kind of experiment: HuProt human proteome microarray, AB0089 at 1 µg/ml.
Source text: (§3) An array consisting of 22,000 full-length human proteins are expressed in S. cerevisiae yeast, purified, and are subsequently printed in duplicate on a microarray glass slide that allows thousands of interactions to be profiled in a high-throughput manner. […] S score is the difference of Z score of a given protein and the one rank next to it.
Test [10] addresses T7, ECDHDC1 (HuProt array JHU25034.P240F11) (human).
T7 construct: Name as printed; may be a misprint of a gene name
The description is as above.
Source text: as §3

Test [11] addresses BC089418 (HuProt array JHU16002.P168E09) (human). Described as above.
Source text: as §3
In test [12] the target is T5, Human CLEC12A-His (recombinant, K244 WT). In words: SPR, two-state fit; control (fully purified protein study).
Procedure: as §2

T4 sequence (P08637 17-208 F176V limits assumed): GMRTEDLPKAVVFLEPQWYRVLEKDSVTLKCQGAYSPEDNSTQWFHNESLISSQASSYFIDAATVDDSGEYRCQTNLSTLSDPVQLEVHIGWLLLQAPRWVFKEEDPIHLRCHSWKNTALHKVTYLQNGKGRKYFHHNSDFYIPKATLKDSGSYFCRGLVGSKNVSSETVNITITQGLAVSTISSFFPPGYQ
T6 sequence (P08637 17-208 limits assumed): as the sequence (P08637 17-208 F176V limits assumed) above, with V160F counted along it
T3 sequence (Q8SPW2 17-208 limits assumed): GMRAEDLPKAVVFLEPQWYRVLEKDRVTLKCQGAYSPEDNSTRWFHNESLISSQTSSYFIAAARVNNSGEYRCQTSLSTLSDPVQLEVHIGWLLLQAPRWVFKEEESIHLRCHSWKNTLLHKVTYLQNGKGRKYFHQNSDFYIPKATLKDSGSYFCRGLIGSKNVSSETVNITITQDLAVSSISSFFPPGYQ
T7 sequence (Q9NTX5 whole entry): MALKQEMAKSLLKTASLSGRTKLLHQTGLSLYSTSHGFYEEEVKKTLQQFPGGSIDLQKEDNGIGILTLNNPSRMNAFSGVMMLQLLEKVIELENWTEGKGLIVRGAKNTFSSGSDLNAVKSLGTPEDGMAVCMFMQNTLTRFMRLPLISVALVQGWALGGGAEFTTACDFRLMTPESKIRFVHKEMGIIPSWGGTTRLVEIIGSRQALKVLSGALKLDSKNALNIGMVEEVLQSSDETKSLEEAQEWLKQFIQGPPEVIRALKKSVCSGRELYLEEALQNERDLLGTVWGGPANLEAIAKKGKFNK

B1: AB0089 TriNKET (bispecific antibody, human IgG1, kappa)
chain: QLQLQESGPGLVKPSETLSLTCTVSGFSLTNYGLHWIRQPPGKCLEWIGVIWVGGATDYNPSLKSRVTISVDTSKNQFSLKLSSVQAADTAVYYCAKGDYGDTLDYWGQGTLVTVSSGGGGSGGGGSGGGGSGGGGSDIQMTQSPSSLSASVGDRVTITCHASQNINFWLSWYQQKPGKAPKLLIYEASNLHTGVPSRFSGSGSGTDFTLTISSLQPEDFATYYCQQSHSYPLTFGCGTKLEIKGSDKTHTCPPCPAPELLGGPSVFLFPPKPKDTLMISRTPEVTCVVVDVSHEDPEVKFNWYVDGVEVHNAKTKPREEQYNSTYRVVSVLTVLHQDWLNGKEYKCKVSNKALPAPIEKTISKAKGQPREPRVYTLPPCRDELTKNQVSLTCLVKGFYPSDIAVEWESNGQPENNYKTTPPVLVSDGSFTLYSKLTVDKSRWQQGNVFSCSVMHEALHNHYTQKSLSLSPG
heavy: EVQLVESGGGLVKPGGSLRLSCAASGFTFSSYSMNWVRQAPGKGLEWVSSISSSSSYIYYADSVKGRFTISRDNAKNSLYLQMNSLRAEDTAVYYCARGAPIGAAAGWFDPWGQGTLVTVSSASTKGPSVFPLAPSSKSTSGGTAALGCLVKDYFPEPVTVSWNSGALTSGVHTFPAVLQSSGLYSLSSVVTVPSSSLGTQTYICNVNHKPSNTKVDKKVEPKSCDKTHTCPPCPAPELLGGPSVFLFPPKPKDTLMISRTPEVTCVVVDVSHEDPEVKFNWYVDGVEVHNAKTKPREEQYNSTYRVVSVLTVLHQDWLNGKEYKCKVSNKALPAPIEKTISKAKGQPREPQVCTLPPSRDELTENQVSLTCLVKGFYPSDIAVEWESNGQPENNYKTTPPVLDSDGSFFLYSWLTVDKSRWQQGNVFSCSVMHEALHNHYTQKSLSLSPG
light: DIQMTQSPSSVSASVGDRVTITCRASQGISSWLAWYQQKPGKAPKLLIYAASSLQSGVPSRFSGSGSGTDFTLTISSLQPEDFATYYCQQGVSFPRTFGGGTKVEIKRTVAAPSVFIFPPSDEQLKSGTASVVCLLNNFYPREAKVQWKVDNALQSGNSQESVTEQDSKDSTYSLSSTLTLSKADYEKHKVYACEVTHQGLSSPVTKSFNRGEC
notes: F3' format heterodimer of three chains; human IgG1 Fc with EW-RVT and Y349C/S354C mutations; also called AB0089 Lot AB0089-002; CLEC12A TriNKET AB0089
The Kd is the constant that tells how readily two partners part at equilibrium. By koff is commonly meant the first-order rate constant of dissociation. The kon is the rate constant with which the complex forms. Regarding B1, the Kd is 900 nM in test [1]; 1250 nM in test [2]; 349 nM in [3]; 320 nM in [4]; 1250 nM and 1280 nM and 1300 nM in [7]; 0.51 nM in test [12]. Besides, the koff amounted to 0.0277 s⁻¹ in [4], 0.0435 s⁻¹ in test [5] and 0.0476 s⁻¹ in test [6]. Further, the kon in test [4] was determined as 86500 M⁻¹ s⁻¹; in test [8], 8.62e+06 M⁻¹ s⁻¹. Also, the Z score in [9] was 151; in [10], 3.75; in [11], 3.7.
